# Laboratory results: the nanobody polyreactivity screen of Harvey et al. (2022)
# Test: yeast display, Sf9 membrane polyspecificity reagent, FACS + sequencing; frameworks hold sequencing errors
# In short: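 A nanobody's polyreactivity label depends on the gate it was sorted from. Yeast display cells were stained with 10% biotinylated, detergent-solubilized Sf9 membrane reagent for 1 hour at 4 °C, enriched on streptavidin microbeads and sorted by FACS. The low and high (top ~1%) gates were set on anti-HA fluorescence for expression and streptavidin fluorescence for reagent binding.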
row,Sequence,polyreactivity (PSR sort gate)
1,QVQLVESGGRLVQAGGSLRLSCAASGSIFYTYAMGWYRQAPGKEMELVAAITYRVGSTYYADSVKGRFTISRDNAKNTVYLQMNSLKPEDTAVYYCNADKGGHVRHYDYWGQGTQVTVSS,low polyreactivity
2,QVQLVESGGRLVQAGGSLRLSCAASGSILTSYPMGWNRQAPGKERELVAAISTTGGSTYYADSVKGRFTISRDNAKNTVYLQMNSLKPEDTAVYYCAKASGSGGEMDYWGQGTQVTVSS,low polyreactivity
3,QVQLVESGGRLVQAGGSLRLSCAASGSNSFRYAIGWDRQAPGKERELVARISSGGSTNYADSVKGRFTISRDNAKNTVYLQMNRLKPEDTAVYYCAKSFRYSVYPYSHYDYWGQGTQVTVSS,high polyreactivity
4,QVQLVESGGRLVQAGGSLRLSCAASGSTFSPYTMGCYRQAPGKERELVAGISKSGGRTYYADSVKGRFTISRDNAKNTVYLQMNCLKREVTAVYYCATRSTTDFYCGQGTQVTVSS,high polyreactivity
5,QVQLVESGGRLVQAGGSLRLSCAASGSTFWESVLGWNRQSPGKDRELVAAITTNDDSTYYADSVKGRFTISRDNAKNTVYLQMNSLKPEDTAVYYCNAVQITGQFDYWGQGTQVTVSS,low polyreactivity
6,QVQLVESGGRLVQAGGSLRLSCAASGYIFDWNAMGWYRQAPGKERELVAAISSGGRTNYADSVKGRFTISRDNAKITVYLQMNSLKPEDTAVYYCAAVYTDPYVEYDYWGQGTQVTVSS,low polyreactivity
7,QVQLVESGGRLVQAGGSLRLSCAASRRIFTFYAMGWSRPAPGKERELVAAITGRGGSTYYADSVKGRFTISRDNAKNTVYLQMNSLKPEDTAVYYCAKRTSYRSHRYYYWGQGTQVTVSS,high polyreactivity
8,QVQLVESGGRLVQAGGSLRLSCAASVRIFFQNAMGWSRQAPGKERELVAGISGSGGSTYYADSVKGRFTISRDNAKNTVYLQMNSLKPEDTAVYYCAARYGIISSFEYDYWGQGTQVTVSS,high polyreactivity
9,QVQLVESGGRLVQAGGSLRLSCASSGSTFVYYAMGWYRPAPGKERELVAVISDDGGTYYADSVKGRFTISRDNAKNTVYLQMNSLKPEDTAVYYCAIDYYGGAYYWYNDRSGDYWGQGTQVTVSS,low polyreactivity
10,QVQLVESGGRLVQAGGSLRLSCHASGIIFTAYAMGWYRPAPGKERELVAAITWSGGSTYYADSVKGRFTISRDNAKNTVYLQMNSLKPEDTAVYYCNGERPSFPFNYWGQGTQVTVSS,low polyreactivity
11,QVQLVESGGRLVQAGGSLRLSFAACGSILRDNSMGWYRQAPGKEREFVADIRGSYDSTYYADSVKGRFTISRDNAKHTVYLQMNSRKREDTAVYYCNRVDAWQDYDYWGLGTQVTVSS,low polyreactivity
12,QVQLVESGGRLVQAGGSLRLSWAASGITFFVNAMGWYRPAPGKERELVAVISRGDSTNYADSVKGRFTISRDNAKNTVYLLMNSLKPEDTAVYYCAADGSRAGLEGNDYWGQGTQVSVSS,low polyreactivity
13,QVQLVESGGRLVQAGGSLRLTCAASGSTFPKYAMGWYRQAPGKERELVASISVTTGSTYYADSVKGRFTISRDNAKNTVYLQMNSLKPVDTAVYYCAKRTYSRKFRGAYNYWGQGTQVTVSS,high polyreactivity
14,QVQLVESGGRLVQAGGSLRLTCAASGYTYSYYAMGWYRQAPGKERELVAAINYSGGRTYYADSVKGRFTISRDNAKNTVYLQMNSLKPEDTAVYYCAAYTRNGDYDYWGQGTQVTVSS,high polyreactivity
15,QVQLVESGGRLVQAGGSLRVSCAASGSTFLFYAMVWYRQAPGKERELVATISRGGSTYYADSVKGRFTISRDNAKNTVYLQMNSQIPEDTAVYYCAARATRVTIAPRYGYWGQGTQVTVSS,low polyreactivity
16,QVQLVESGGRLVQAGGTLRLSCAASGRIFGDYAMGWYRQAPGKERELVAVISVGGRTTYADSVKGRFTISRDNAKNTVYLQMNSLKPEDTAVYYCATRLSTRDGGYRGQGTQVTVSS,low polyreactivity
17,QVQLVESGGRLVQAGRSLRLSCAASGRTFGRYAMGWYRQAPGKERELVAAITRGGGSTYYADSVKGRFTISRDNAKYTVSLQMNSLKPEDTAVYYCAARNFRSPYGYDYWGQGTQVTVSS,high polyreactivity
18,QVQLVESGGRLVQAGVSLRLSCAAGGRTFGINAMGWYRQAPGKERELVARIRKTVGSTYYADSVKGRFTISRDNAKNTVYLQMNSLKPEDTAVYYCNADYDAYPRYIRYGYWGQGTQVTVSS,high polyreactivity
19,QVQLVESGGRLVQARGSLRLSCAASRSTFPFYYMGWYRQAPGKERELVAAHTRRCGSTYYAVSVKGRFTISRDNGKNTFYLQMNSLKPEDTAVYYCAADDYTITIYYILDYWGQGTQVTVSS,low polyreactivity
20,QVQLVESGGRLVQGGGSLRLSCAASGITFKGYTMGWYRQAPGKERELVATISRGGRTYADSVKGRFTISRDNAKNTVYLQMNSLKPEDSAVYYCAADKYWAQNDYWGQGTQVTVSS,low polyreactivity
21,QVQLVESGGSLVQAGGSLRLSCAASGRIFYYNAMGWYRQAPGKERELVAAISWSGGSTYYADSVKGRFTISRDNAKNTVYLQMNSLKPEDTAVYYCAVDVYGYTPRPTREPLIYEYWGQGTQVTVSS,low polyreactivity

row,Sequence,polyreactivity (PSR sort gate)
1,QVQLVESGGSLVQARGSLRLSCAASGFIFPYYVMGGYRHAPGQERELVAAITCGGITYYAESVKGRFTISRDNAKNTVYFLMTSLKPEDTVVYYCAAENKYFYAWGSFVDDEYWGQGTQVTVSS,high polyreactivity
2,QVQLVESGGVLDQAGGSLRLICAASGITLFHYVMGWYRQAPGKEMELVAVISSSGGSTYYADSVKGRFTISRDNAKNTVYLQMNSLKPEDTAVYYCAAETDSRKARVLYDYWGQGTQVTVSS,high polyreactivity
3,QVQLVESGGVLDQAGGSLRLSFAASGFTFGAYAMGWYRHAPGKETELVASISWSGGSTYYADSVKGRFTISRDNAKNPVYLQMNSVKPEDTAVYYCNKDFVYPEDDGLFDFWGQGTQVTVSS,low polyreactivity
4,QVQLVESGGVLDQAGRSLRLSCAASGRTFNRYAMGWYRQAPGKERDLVAAISSSGGSTYYADSVKGRFTISRDNAKNTVYLQMNSLKPEDTAVYYCNKGQYSHLNSYGDDYWGQGTQVTVSS,high polyreactivity
5,QVQLVESGGVLLQAGGSLRLTCAASGSIFQYNALVGYRQAPGKVREFVAAITRGDSTYYADSVKGRFTISRDNAKNTVYLQMNSLKADDTAVYYCAKRGWFYGGRDYWGQGTQVTVSS,high polyreactivity
6,QVQLVESGGVLVQAAGSLRLSCAASGRIFGYNAMGWYRQAPGSERDFVAAISPSGGSTYYADSLKGLFTISRDNAKITVYLQMNSLKPEDTGVYYCAARIGYRSWAWDAYEYWGQGTQVTVSS,low polyreactivity
7,QVQLVESGGVLVQAGGSLRISCAASGIIFSYYAMGWYRQAPGKERELVAAIYRRGTSTYYADSVKGRFTISRDNAKNTVYLQMNSLKPEDTAVYYCNKSPYYTVWSTRCNQFSRFYYWGQGTQVTVSS,high polyreactivity
8,QVQLVESGGVLVQAGGSLRISCAASGSIFGSYAMGWYRQAPGKEREFVAAIRRSSASTYYADSVKGRFTISRDNAKNTVYLQMYSLKPEDTAVYYCATQCYCYYGYRYRYAAYDYRGQGTQVTVSS,high polyreactivity
9,QVQLVESGGVLVQAGGSLRLICAASGSTFEFYAMGWYRQEPGKERELVARITWNGGNTYADSVKGRYTISRDNAKNNVYLQMNSLKPEDTSVYYCATDYVVGFYYWGQGTQVTVSS,low polyreactivity
10,QVQLVESGGVLVQAGGSLRLSCAASGFIFPYYAMGWYRPAPGKETELVAAIDQSGDSTYYADSVKGRFTISRDNAKNTVYLQMNSLKPEDTAVFYCAARAVGGVRGYRYDYWGQGTQVTVSS,high polyreactivity
11,QVQLVESGGVLVQAGGSLRLSCAASGFTFLVYAMGWYRQAPGKERELLAAITSGSSTTYADSVKGRFTISRDNAKNTVYLQMNSLKPEDTAVYYCAARPRLDVLVKRFYYWGQGTQVTVSS,high polyreactivity
12,QVQLVESGGVLVQAGGSLRLSCAASGFTFVSNDMGWYRQAPGKERELVAAIRYRGGDTYYADSVKGRFTISRDNAKNTVYLQMNSLKPEDTAVYYCATGKRAYSSYLFDYWGQGTQVTVSS,low polyreactivity
13,QVQLVESGGVLVQAGGSLRLSCAASGGIFGNYAMGWYRQAPGKERELVAVIDSSDGSTHYADSVKGRFTISRDNAKITVYLQMNSLKPEDTALYYCATQGFWNYWTFDYWGQGTQVTVSS,low polyreactivity
14,QVQLVESGGVLVQAGGSLRLSCAASGITFNSYAMGWYRQAPGKERELVASISWIGGSTYYADSVKGRFTISRDNAKNTVYFQMNSLKPEDTAVYYCAVDKGTDYYYDVDYWGQGTQVTVSS,low polyreactivity
15,QVQLVESGGVLVQAGGSLRLSCAASGLIFPSYALGWYRQAPGKERELVAAITFSGSDTNYADSVKGRFTISRDNAKNTVSLQMKSLKPEDTAVYYCAAAYFDFWGWLHDYWGQGTQVTVSS,low polyreactivity
16,QVQLVESGGVLVQAGGSLRLSCAASGLTFDPNAMGWYRQAPGKERELVATITQTDGSTYYADSVKGRFTISRDNAKNTVYLQMNSLKPEDTAVYYCDGLVSRGSDYWGQGTQVTVSS,low polyreactivity
17,QVQLVESGGVLVQAGGSLRLSCAASGLTFQPYVMGWYRHAPGKERELVAAISVRTTRTYYADSVKGRFTISRDNAKNTVYLQMNSLKPEDTAVYYCATRGDYWSPYEDDDYWGQGTQLTVSS,low polyreactivity
18,QVQLVESGGVLVQAGGSLRLSCAASGNTFKHYALGGYRQAPGKEREKVAAISRSGASTNYADSVKGRFTISRDNAKNTVYLQMNSLKPEDTAVYYCAAEYSARKAYLYDYWGQGTQVTVSS,high polyreactivity
19,QVQLVESGGVLVQAGGSLRLSCAASGNTFWLNAMGWYRQSPGKERELVDAITYTDGSTYADSVKGRFTISRDNAKNTVYLQMNSLKPEDTAVYYCAVANPSPYEWIAYYYWGQGTQVTVSS,low polyreactivity
20,QVQLVESGGVLVQAGGSLRLSCAASGRIFGRYAMGWYRPAPGKERELVAAISWSGDSTYYADSVKGRFTISRDNSTNTVYLHMNSLKPEDTAVYYCATGGRGGRRYEYWGQGTQVTVSS,low polyreactivity
